Results from patent publication US20190276531A1.
Each block holds one substance with its values, some of them ahead of it.

Legend:
[1] = molecular target: human TIM-3 ECD fused C-terminally to human IgG1 Fc (made in-house, ExpiCHO) (human) (UniProt Q8TDQ0); assay: SPR (IBIS MX96); TIM-3 ECD-Fc captured on anti-human IgG Fc sensor, Fab injected 1-100 nM; 1:1 Langmuir fit
[2] = molecular target: cynomolgus TIM-3 ECD fused C-terminally to human IgG1 Fc (made in-house, ExpiCHO) (cynomolgus monkey (Macaca fascicularis); human); assay: as above
Sequence of cynomolgus TIM-3 ECD fused C-terminally to human IgG1 Fc (made in-house, ExpiCHO) (cynomolgus monkey (Macaca fascicularis); human) (chain, as listed by the source limits assumed): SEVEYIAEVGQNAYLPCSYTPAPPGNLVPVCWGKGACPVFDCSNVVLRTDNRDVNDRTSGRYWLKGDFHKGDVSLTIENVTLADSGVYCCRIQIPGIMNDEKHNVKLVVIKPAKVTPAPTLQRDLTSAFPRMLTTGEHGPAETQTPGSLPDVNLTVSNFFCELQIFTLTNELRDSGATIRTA

[3] = molecular target: R-PE-labeled human TIM-3-Fc chimera protein (R&D Systems) (human) (UniProt Q8TDQ0); assay: flow cytometry competition: R-PE-labelled TIM-3-Fc pre-mixed with titrated antibody, then binding to phosphatidylserine-positive apoptotic Jurkat cells; blocked ligand: phosphatidylserine [continued) C]
[4] = molecular target: R-PE-labeled human TIM-3-Fc chimera protein (R&D Systems) (human) (UniProt Q8TDQ0); assay: flow cytometry competition; R-PE TIM-3-Fc preincubated with 3.125 µg/ml antibody, then apoptotic Jurkat cells showing phosphatidylserine
[5] = molecular target: R-PE-labeled human TIM-3-Fc chimera protein (R&D Systems) (human) (UniProt Q8TDQ0); assay: flow cytometry competition: R-PE-labelled TIM-3-Fc pre-mixed with titrated antibody, then binding to phosphatidylserine-positive apoptotic Jurkat cells (MFI); blocked ligand: phosphatidylserine; unit taken from the axis log(Concentration) µg/ml [continued) C]
[6] = molecular target: cynomolgus TIM-3 Fc fusion antigen (Sino Biologicals) (cynomolgus monkey (Macaca fascicularis)); assay: ELISA; EC50 on cynomolgus TIM-3 over EC50 on human TIM-3
[7] = molecular target: cynomolgus TIM-3 Fc fusion antigen (Sino Biologicals) (cynomolgus monkey (Macaca fascicularis)); assay: ELISA; TIM-3 Fc fusion coated at 1 µg/ml, antibody titrated 2-fold from 1000 nM, HRP secondary
[8] = molecular target: human TIM-3 Fc fusion antigen (Sino Biologicals) (human) (UniProt Q8TDQ0); assay: as above

Kd [1]: 0.77 nM | Kd [2]: 25 nM
Substance: Fab fragment of 18564 ABTIM3 (reference analogue)

TIM-3 binding (MFI) at 0.003 µg/ml antibody [3]: 8700 MFI | TIM-3 binding (MFI) at 0.012 µg/ml antibody [3]: 8730 MFI | TIM-3 binding (MFI) at 0.049 µg/ml antibody [3]: 8890 MFI | TIM-3 binding (MFI) at 0.195 µg/ml antibody [3]: 8800 MFI | TIM-3 binding (MFI) at 0.781 µg/ml antibody [3]: 4480 MFI | TIM-3 binding (MFI) at 3.125 µg/ml antibody [3]: 184 MFI | TIM-3 binding (MFI) at 12.5 µg/ml antibody [3]: 160 MFI | TIM-3 binding (MFI) at 50 µg/ml antibody [3]: 157 MFI | TIM-3-Fc binding to PtdS-positive cells left, % of the binding with non-blocking antibody 15338.15338 [4]: 3.2% | IC50 [5]: 0.782 µg/mL
Substance: reference anti-TIM-3 antibody 18571.18571 (humanized ABTIM3 analogue)

Ratio Cynomolgus/Human EC50 [6]: 1 | EC50 [7]: 0.07 nM | EC50 [8]: 0.07 nM
Substance: reference antibody analogue 18564 ABTIM3
